Patent publication US20200123268A1 (UNIVERSIT DEGLI STUDI MAGNA GRAECIA CATANZARO, published 2020)
Residue numbers refer to the chain shown, from its start. Values belong to the binder of their own block, whether it stands above or below them.

Tests used:
[1] = target: T1, CD43 #5 (truncated CD43, aa 91-400), expressed in HEK293T cells (human, UniProt P16150 91-400); assay: flow cytometry on transfected HEK293T cells, percent h-UMG1-PE positive among GFP positive cells
T1 construct: also called CD43 Clone #5; not shown: His tag from the vector pLenti-CMV-(insert)-Histag-GFP-2A-Puro
T1 sequence: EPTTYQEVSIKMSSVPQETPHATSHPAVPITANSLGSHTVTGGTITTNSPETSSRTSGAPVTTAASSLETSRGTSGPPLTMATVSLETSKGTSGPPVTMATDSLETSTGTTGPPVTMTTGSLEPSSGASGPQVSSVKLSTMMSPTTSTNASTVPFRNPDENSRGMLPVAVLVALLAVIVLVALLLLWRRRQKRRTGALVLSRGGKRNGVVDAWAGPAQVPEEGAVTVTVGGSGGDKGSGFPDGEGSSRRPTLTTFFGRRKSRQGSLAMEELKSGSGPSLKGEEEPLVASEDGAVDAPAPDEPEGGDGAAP

[2] = target: T2, CD43 #6 (CD43 with deletion of aa 64 to 78), expressed in HEK293T cells (human, UniProt P16150 20-400); assay: as above
T2 construct: also called CD43 Clone #6; not shown: His tag from the vector pLenti-CMV-(insert)-Histag-GFP-2A-Puro
T2 sequence: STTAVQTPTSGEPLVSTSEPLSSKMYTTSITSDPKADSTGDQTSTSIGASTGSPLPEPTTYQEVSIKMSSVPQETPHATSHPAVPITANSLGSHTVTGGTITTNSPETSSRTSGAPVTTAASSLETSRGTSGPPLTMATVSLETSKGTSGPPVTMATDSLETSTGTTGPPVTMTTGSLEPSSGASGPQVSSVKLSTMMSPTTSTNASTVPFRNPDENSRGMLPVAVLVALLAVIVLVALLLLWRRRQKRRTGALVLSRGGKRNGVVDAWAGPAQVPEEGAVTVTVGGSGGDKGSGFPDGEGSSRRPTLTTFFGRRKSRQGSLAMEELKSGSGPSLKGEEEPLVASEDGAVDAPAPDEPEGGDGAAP

[3] = target: T3, CD43 #7 (CD43 with deletion of aa 69), expressed in HEK293T cells (human, UniProt P16150 20-400); assay: flow cytometry on transfected HEK293T cells, 1 ug/ml h-UMG1-PE, percent positive among GFP positive cells
T3 construct: also called CD43 Clone #7; not shown: His tag from the vector pLenti-CMV-(insert)-Histag-GFP-2A-Puro
T3 sequence: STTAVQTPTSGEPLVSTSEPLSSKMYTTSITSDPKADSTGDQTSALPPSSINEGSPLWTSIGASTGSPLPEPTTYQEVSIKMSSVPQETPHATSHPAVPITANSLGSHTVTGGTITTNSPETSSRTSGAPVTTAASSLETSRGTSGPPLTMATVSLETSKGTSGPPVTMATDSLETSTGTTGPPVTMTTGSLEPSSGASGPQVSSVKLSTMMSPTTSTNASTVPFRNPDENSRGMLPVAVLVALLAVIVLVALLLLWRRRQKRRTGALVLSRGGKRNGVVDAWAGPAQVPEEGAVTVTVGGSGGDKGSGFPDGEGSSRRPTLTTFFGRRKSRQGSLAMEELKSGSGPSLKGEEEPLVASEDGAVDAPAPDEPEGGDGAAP

[4] = target: T4, CD43 #8 (CD43 aa 1-400 with T69N), expressed in HEK293T cells (human, UniProt P16150 20-400); assay: as above
T4 construct: also called CD43 Clone #8; not shown: His tag from the vector pLenti-CMV-(insert)-Histag-GFP-2A-Puro
T4 sequence: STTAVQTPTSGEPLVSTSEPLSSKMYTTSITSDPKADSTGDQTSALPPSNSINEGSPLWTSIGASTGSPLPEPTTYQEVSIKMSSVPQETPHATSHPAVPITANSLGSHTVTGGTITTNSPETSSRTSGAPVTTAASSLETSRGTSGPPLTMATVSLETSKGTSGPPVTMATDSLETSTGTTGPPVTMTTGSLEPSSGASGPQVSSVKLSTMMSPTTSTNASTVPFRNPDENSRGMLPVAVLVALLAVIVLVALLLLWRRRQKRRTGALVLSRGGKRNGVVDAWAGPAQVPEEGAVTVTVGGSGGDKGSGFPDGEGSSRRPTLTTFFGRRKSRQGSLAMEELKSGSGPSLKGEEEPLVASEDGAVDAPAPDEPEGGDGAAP

[5] = target: T5, human CD43, endogenous, on primary cells and cell lines that carry the UMG1 epitope (human, UniProt P16150 20-400, native glycosylation of the cell concerned); assay: flow cytometry, antibody at 1 ug/ml, FITC mouse anti-human IgG secondary; histogram grid, cell line not labelled (HPB-ALL or H9)
T5 construct: also called UMG1 antigen; the target
T5 sequence: T4 sequence with N50T
Protocol: (§1) Each screening was performed twice, for a total of 4 replicates.

[6] = target: T5, human CD43, endogenous, on primary …; assay: flow cytometry, antibody at 1 ug/ml, FITC mouse anti-human IgG secondary; cell line of the histograms not labelled (HPB-ALL or H9)
Protocol: as §1

binding result [5]: binds
B7: humanized UMG1 antibody H1-L1 (VH1 + VL1) (antibody, IgG1, V domains shown)
VH: EVQLVESGGGLVQPGGSLRLSCAASGFTFSSFGMHWVRQAPGKGLEWVSYISSGSGNFYYVDTVKGRFTISRDNAKNSLYLQMNSLRAEDTAVYYCARSTYYHGSRGAMDYWGQGTLVTVSS
VL: EIVLTQSPATLSLSPGERATLSCSASSSVSSMYWYQQKPGLAPRLLIYDTSKMASGIPDRFSGSGSGTDFTLTISRLEPEDFAVYYCQQWSSYPPITFGQGTRLEIK
notes: The label follows the pattern H3-L4

binding result [5]: binds
B8: humanized UMG1 antibody H2-L3 (VH2 + VL3) (antibody, IgG1, V domains shown)
VH: B7 VH with A23V
VL: QVVMTQSPAFLSVTPGEKVTITCSASSSVSSMYWYQQKPDQAPKLLIYDTSKMASGVPSRFSGSGSGTDFTFTISSLEAEDAATYYCQQWSSYPPITFGGGTKVEIK
notes: as for B7

binding result [5]: binds
B13: humanized UMG1 antibody H4-L4 (VH4 + VL4) (antibody, IgG1, V domains shown)
VH: B7 VH with E1Q, L11V, A23V, S49A, A75S, S78T
VL: B8 VL with Q37L, S59I, I74V, L77V
notes: as for B7

binding result [5]: binds
B15: humanized UMG1 antibody H1-L4 (VH1 + VL4) (antibody, IgG1, V domains shown)
VH: B7 VH
VL: B8 VL with Q37L, S59I, I74V, L77V
notes: as for B7

binding result [5]: binds
B16: humanized UMG1 antibody H4-L2 (VH4 + VL2) (antibody, IgG1, V domains shown)
VH: B7 VH with E1Q, L11V, A23V, S49A, A75S, S78T
VL: B7 VL with V3A, Q37L, D59I, I74V, L77V
notes: as for B7

binding result [6]: binds
B17: ch-UMG1 (chimeric antibody: murine UMG1 variable regions on human IgG1 constant regions) (antibody, V domains shown)
VH: DVQLVESGGGLVQPGGSRKLSCVASGFTFSSFGMHWVRQAPEKGLEWVAYISSGSGNFYYVDTVKGRFTISRDNPKNTLFLQMTSLRSEDTAMYYCARSTYYHGSRGAMDYWGQGTSVTVSS
VL: QIALTQSPAIMSASPGEKVTMTCSASSSVSSMYWYQLKPGSSPRLLIYDTSKMASGVPIRFSGSGSGTSFSLTVSRVEAEDAATYYCQQWSSYPPITFGAGSKLELKR
notes: also called chimeric mAb ch-UMG1; chimeric mAb

More lines, now with the values behind:

B1: h-UMG1-PE (phycoerythrin-conjugated h-UMG1) (antibody, human IgG1, kappa, V domains shown)
VH: B7 VH with A23V, S49A
VL: QVVMTQSPAFLSVTPGEKVTITCSASSSVSSMYWYQLKPDQAPKLLIYDTSKMASGVPIRFSGSGSGTDFTFTVSSVEAEDAATYYCQQWSSYPPITFGGGTKVEIKR
modifications: phycoerythrin conjugate, site not stated
notes: also called h-UMG1-PE conjugated antibody
binding result [1]: no binding (tested: 1 ug/ml)
binding result [2]: no binding (tested: 1 ug/ml)
binding result [3]: binds
binding result [4]: binds

B2: humanized UMG1 antibody H3-L1 (VH3 + VL1) (antibody, IgG1, V domains shown)
VH: B7 VH with A23V, S49A
VL: B7 VL
notes: as for B7
binding result [5]: binds

B3: humanized UMG1 antibody H3-L3 (VH3 + VL3) (antibody, IgG1, V domains shown)
VH: B7 VH with A23V, S49A
VL: B8 VL
notes: as for B7
binding result [5]: binds

B4: humanized UMG1 antibody H1-L2 (VH1 + VL2) (antibody, IgG1, V domains shown)
VH: B7 VH
VL: B7 VL with V3A, Q37L, D59I, I74V, L77V
notes: as for B7
binding result [5]: binds

B5: humanized UMG1 antibody H2-L1 (VH2 + VL1) (antibody, IgG1, V domains shown)
VH: B7 VH with A23V
VL: B7 VL
notes: as for B7
binding result [5]: binds

B6: humanized UMG1 antibody H2-L4 (VH2 + VL4) (antibody, IgG1, V domains shown)
VH: B7 VH with A23V
VL: B8 VL with Q37L, S59I, I74V, L77V
notes: as for B7
binding result [5]: binds

B9: humanized UMG1 antibody H1-L3 (VH1 + VL3) (antibody, IgG1, V domains shown)
VH: B7 VH
VL: B8 VL
notes: as for B7
binding result [5]: binds

B10: humanized UMG1 antibody H4-L3 (VH4 + VL3) (antibody, IgG1, V domains shown)
VH: B7 VH with E1Q, L11V, A23V, S49A, A75S, S78T
VL: B8 VL
notes: as for B7
binding result [5]: binds

B11: humanized UMG1 antibody H3-L2 (VH3 + VL2) (antibody, IgG1, V domains shown)
VH: B7 VH with A23V, S49A
VL: B7 VL with V3A, Q37L, D59I, I74V, L77V
notes: as for B7
binding result [5]: binds

B12: humanized UMG1 antibody H2-L2 (VH2 + VL2) (antibody, IgG1, V domains shown)
VH: B7 VH with A23V
VL: B7 VL with V3A, Q37L, D59I, I74V, L77V
notes: as for B7
binding result [5]: binds

B14: humanized UMG1 antibody H4-L1 (VH4 + VL1) (antibody, IgG1, V domains shown)
VH: B7 VH with E1Q, L11V, A23V, S49A, A75S, S78T
VL: B7 VL
notes: as for B7
binding result [5]: binds
